The nature of the series: soluble on expression in E. coli; label from the status in PepcDB or PDB records.
In the case of “MVKLRIGYPEDPDYQERLEEFEARIARGEKIEPGDWMPAEYRRQLIRMISQHAHSEWVGMLPEGAWITRAPSLRRKLILLAKVQDEAGHGQYLYHAAETLGITREEMVEALLSGKAKYSNIFNYPTLTWADVAIIGWLVDGMAIKNQTMLAQCSYGPYSRAMVRICAEETFHHKQGKEAVLLYAKGSPKQRRMVQDALNRWWWPTLMMAGPHDTDSPHTPLLLRWGIKTKTNDQIRQEFLNEHVPELLDAGLSIPDPDLRYDEKTGNWIHGPIPWDEFWKVIGGEGPMNRHRLQGRRRAHQEGRWVREAMEAYAKRRLAQAAD”, the “soluble on expression in E. coli” value was “soluble”.

As for “MPIRGFHYRGDEAIYPASVVKLFYLVAALEWLQQGMIQPSAELDRALRDMIVDSSNDATGYIVDLLSGTTSGPELGDGPFKTWQFQRNIVNRYYQSLMWPELQPINVNQKTWGDGPYGRERAFYGPEFENRNKLTTNATARLLHAIAGGVAVSPSASQRMLNLLNRPFDPRSLAEDPENQVTGFLGQDLPQGSQLWSKAGWMSRVRHDAAYLEIPGLPPHLLVAFTEGKEHANNEAILPFIAQQVRQQLQPALEHHHHHH”, the “soluble on expression in E. coli” value is listed as “not soluble”.

For “MGSDKIHHHHHHMRVKYFGTDGIRGIFGETLTDELAFKVGKALGEIVGEGKVIVGKDTRVSGDSLEAAISAGLTSMGVDVLLCGILPTPAVALLTRITRSFGVVISASHNPPEYNGIKVLKGGYKIPDEMEAEIEKRLENGSFLTRSVVGRTKSFREGRDMYIGAVLEMFRDLDLTGEMVSLDLANGATTTTAREVFEFLGAKVEVFNDSQDGLLINQGCGATHPRFLAEEMKNGKVGFTFDGDGDRVIAVDEERNVVNGDRIIGILAVGLKEEGRLNSDTVVGTVMTNGGLEDFLKEKGIRLLRTKVGDKYVLEKMLESGANLGGERSGHIIILDRSTTGDGLITALELMRVLKRSGRKLSDFAKEIPDYPQITKNVRRTERMSLENENLRKIVEESTSRGYRVVIRPSGTEPVIRITVEGKDREEIEKIVEEISRVLES”, the “soluble on expression in E. coli” value was “not soluble”.

On to “MSLVLRKRSMKLGDLKVHTLAIPLREPIQFSWEPFPHPVYVFSIVEVEAGGFKGYSAIEFGAAYKHFLETTVKLTIQGLDIEIEDVDARLLEVGSWAIQRLGALEVAIWDLIAKREGLPLYRLLGGGRRKVKVYASTGRLLSAEETVKMVEKYAELGIDVVKLRFRRERINEDLEVLKAVAREFSDVKISVDANQAWSYTPPYWSRKKAMKVAKELENFEVLWLEEPLWKDDVEGYRWLRENTSIEISGGELEHGIQRFRMLIEGGAFDIVQADAVYSNGIQECRKVAALAEAFNLKFMPHAWDPGLGWLANLHLAASLPEKLCPYIETPLDPLWWNEVMFGVLNGEVELEKGYAKLPEQPGLGFEPDEEKMKKFRIAEGHHHHHH”, for which the “soluble on expression in E. coli” value is reported as “not soluble”.

As to “MGSDKIHHHHHHMESIENSYGRLLLESQLPDSAKQLAQPLKSVVILRGKMICQRCHYQLDEEARLPSGAYYCRFCLVFGRNQSDKLLYAIPPMHFPKGNYLVWGGQLTAYQEMISQQLLINMQNQKTTLVHAVTGAGKTEMIYAAIEAVINTGGWVCIASPRVDVCVEVATRLSQAFSCSICLMHAESLPYQRAPIIVATTHQLLKFHKAFDLLIIDEVDAFPFVNNIQLHYAASQALKEGGAKILLTATSTRTLERKVNKGEVVKLTLARRFHNRPLVIPKFIRSFNLFKMIHRQKLPLKILKYLKKQRKTGYPLLIFLPTIIMAESVTAILKELLPAEQIACVSSQSQNRKEDITAFRQGKKTILITTSILERGVTFPQIDVFVLGSHHRVYSSQSLVQIAGRVGRSIDRPDGTLYFFHEGISKAMLLARKEIKEMNYKGYSHDLSTMSTN”, the “soluble on expression in E. coli” value is on record as “not soluble”.

As to “MARLSQEIILDMAEQIIYEKGMEKTTLYDIAGNLNVTHAALYKHYRNKEDLFQKLALRWLEETSREIFAWTKEKDASPDDALHDWLWLLADTKKTLYKTDRKMFLLYTDYIEQKEELVKNHIEHLAQKAEEVSGRVNQGDAIITAFIYFHNPYFASRWEKAGYVELFERVWQVVR”, the “soluble on expression in E. coli” value was “not soluble”.

As for “MDAPRINKWLKPLSALYGVGVRLRNYLFDKNVLISNSFDIPIVCVGNITIGGTGKTPHVEYLIRLLHPRYRVAVVSRGYKRKTKGMIVATEGSTAWDIGDEPRQIKRKYPDLTVIVDADRSRAIGYLCDLAEEQRPQLIVLDDGFQHRKVKADLNIVLTDYNRILTKDYLLPAGRLREPAGSIQRADMVILTKCPDDLAPIDLRAAKRDLALYPHQKLFFSKFLYGQGLKPLFSDQSPSAEVRSALAIAGIASPKLFFREIRTRFPSGTDRIYPDHHEFTDREICLLIQDWHELHRKDANAIVVCTEKDAMRLALRQSSFPQEMQERFYYLPVEVKLMFDQEKVFVDRLLGVIQHKKLEHHHHHH”, the “soluble on expression in E. coli” value is “not soluble”.

In the case of “MMSAYNKLVRDRVPEKILMSGKTYTAQKLTGQAYIQALAKIGTEEIREFASMKEREHALDSLADALEVIISLARAEGASIEDVERLRKQKEIERGGFERGIYLLDVSEE”, the “soluble on expression in E. coli” value is “not soluble”.

Take “MIKSYKIRGTSLTVNRSDSYPDACNWTADSFGMLFYDPEYDLSTESLSITLDAGNDWVPEGGLVYESLPVKVTYENPEMMDYGTDWFNQGYSALGWNGEEYAYLGTDRGIVNILLEEDEKILYPNEEYDLKEGYTLKVTDLASDKACLTLSRNKLPVYSSIISPGKSADLGTHTFLYKKELNGVEVPLFSVYVDSVIQGDELSAVNLKHLLHFSDSPLELNYGKEYGELTIVETYPKLRLENKHVVWSGSDINVTEDIWIGRFEKKTAGNLFVLEHHHHHH”: the “soluble on expression in E. coli” value was “soluble”.

On to “MISHLFQTYGRRTVEFVKGNGTKVIDNNGKQYLDFTSGIGVCNLGHCHPTVMKAVQEQLNDIWHISNLFTNSLQEEVASLLTENIALDYVFFCNSGAEANEAALKLARKHTGKSLVVTCEQSFHGRTFGTMSATGQNKVKEGFGPLLPSFLHTPFNDIKALKEVMNEEVAAVMVEVVQGEGGVIPADLSFLKEIETLCKKFGSLFIIDEVQTGIGRTGTLFAYEQMGIDPHIVTTAKALGNGIPVGAMIGRKELGTSFTAGSHGSTFGGNYVAMAAAKEVLQVSKRLSFLKEVQEKGEYVLQKLQEELQHVECIQNIRGKGLMVGIECTHEVASFIEQLEKEGLLVLQAGPNVIRLLPPLIVTNEELEQAVYMIKKVVCTKNVSII”, for which the “soluble on expression in E. coli” value was “not soluble”.

Regarding “MGFLPDSWHFYIETLLVALLAYVVMRNRSKRQQEKLSKKLTERQKDELIADWTPEPLVPETPQDHPVLNPKYADGKMTKDVSIDGEKYLNMASTNFLSFIGVKRIEDRAKQTIFKYGVGSCGPRGFYGTVDVHLDLEKELAKFMGCEEAVLYSYGFATVSSAIPAYAKKGDVIFVDEGVNFAIQKGLQASRSRVEYFKHNDMEHLERLLLEQEQRDKKDPKKAKSVRRFIVVEGLYVNYADLCPLPKIIEFKWRFKVRVFIDESWSFGVIGKTGRGVTEHFNVPMEDVDMVMASLENALASTGGFCVGRSYVVGHQRLSGLGYCFSASLPPLLATAASEAISIIDEEPSRVQKVTEMAINGQKKLQDALSGSKFSLQGCPESPMKHIYYNGEDEEKQLDTFVETVFTKNHLLLTRARYLDKDELFKIRPSIRVMFQHDLTEEEIQRAVDAIRVVAHKF”, the “soluble on expression in E. coli” value is listed as “not soluble”.

“MGHHHHHHSHLKHKMMNYMKDFRMIEDSENPEIVISVGGDGTLLQAFHQYSHMLSKVAFVGVHTGHLGFYADWLPHEVEKLIIEINNSEFQVIEYPLLEIIMRYNDNGYETRYLALNEATMKTENGSTLVVDVNLRGKHFERFRGDGLCVSTPSGSTAYNKALGGALIHPSLEAMQITEIASINNRVFRTVGSPLVLPKHHTCLISPVNHDTIRMTIDHVSIKHKNVNSIQYRVANEKVRFARFRPFPFWKR”: the “soluble on expression in E. coli” value is recorded as “not soluble”.

Take “MSLAGEVWLQTHHPDHPLLQTLINGGYHTFANTELQQRQAAGLPPFAHLALLRAEAKDTTSTQQFLATVRKHIPIDNAVECYGPMSAPMPRRAGYERYQLLLSSSQRNTLHRTLNVLIPAIHALPEARRVRWSLDVDPVDLYEGHHHHHH”: the “soluble on expression in E. coli” value was “not soluble”.

“MAGDPMKKQFLEKAVFTVAATAATVVLGNKMADADTYTLQEGDSFFSVAQRYHMDAYELASMNGKDITSLILPGQTLTVNGSAAPDNQAAAPTDTTQATTETNDANANTYPVGQCTWGVKAVATWAGDWWGNGGDWASSASAQGYTVGNTPAVGSIMCWTDGGYGHVAYVTAVGEDGKVQVLESNYKDQQWVDNYRGWFDPNNSGTPGSVSYIYPNLEHHHHHH”: the “soluble on expression in E. coli” value is “soluble”.

With “MGSDKIHHHHHHMGEIVLAAKCTHVPTMLMSEQEGPVKGKRQAAIDGHLEIARRARALGADTVVICDTHWVINAGFHINANSRFQGLFTSNEFPQFIQNMPYDYEGNPGLGDAIAKEASARGAYTLAHHLDSLELEYGTLVPMRFMSREHKMKVVSVAAWCTVHDHDESRIVGEAIRAAVEASNSKVLLVASGSLSHKIWPNKDYAANNGTFTISSEFNRQMDLHVLEMWKRGDHATFLKMLGDYARFCCGEGSMHDTAMLYGALGWDSYDKPCEVVTEYFPSSGTGQTNVIFPV”, the “soluble on expression in E. coli” value was “not soluble”.

Take “MSNVIFSQKLYDTAQMVVDGCMGDADPACQTACPMHTDVKQYVRLAGEGNYQEALDLIRGKLFLPQTLGRICAHPCEAACRRNTEYNQPISVAGIKRFVAEKMDKQSNWDLTVANDSGKKIAIVGAGPAGAQAAIELRRSGHQVTIYEKLNVYGGMMRVGIPEYRLPRDVIDFEYGYLDMLGIETKFGIEIGKDISFNELRLSHDAIILAHGAHVGSIIPLPGHKAQGVFSAVEYLKEVSETRDFPRAGKRIMVIGGGDVAMDCARSSWRIGVDEVHQCSLEEMAKLPASQIEIDESLEEGVLFNAGWGPISIEETDGKVTGIVLKKVISIFDENGNFSPSYSDETRTIAVDTVIFATGQVVADITDGALEQTRGGRYVVDKDTLASSVDGVYVAGDACGGNIVVEAMALGHKAALSIERQFAKRPLTENRDFEKEYNYPSRLDIPLPKGTTDTPRLHGQLRDAEERKQDFKQVDLGFSEEQIKQEASRCLQCTCKLCMNECVMMNDFGDCPKTLFSDFINNKTMDPLLAYSCNACDQCTIVCPKDYPMKEMFLSARVDFVNANGGNSPIPGHKAINMHQKLGFSKFFTMAKRTVASKLEHHHHHH”: the “soluble on expression in E. coli” value is recorded as “not soluble”.

Regarding “GSMAEGRGSRERPDVETQKTELGALMGTTLQRGAQWYLIDSRWFKQWKKYVGFDSWDMYNVGEHNLFPGPIDNSGLFSDPESQTLKEHLIDELDYVLVPAEAWNKLLNWYGCVEGQQPIVRKVVEHGLFVKHCKVEVYLLELKLCENSDPTNVLSCHFSKADTIATIEKEMRKLFNIPAERETRLWNKYMSNTYEQLSKLDNTIQDAGLYQGQVLVIEPQNEDGTWPRQSL”, the “soluble on expression in E. coli” value is on record as “soluble”.

As to “MFTTVITPRVSETDGVGHINNTTVPVWFEAGRHEIFKLFTPDLSFKRWRMVIIRMEVDYVNQMYYGQDVTVYTGIERIGNTSLTIYEEIHQNGVVCAKGRSVYVNFNFDTGRPEPIPDDIRVKLREHVWQPGE”, the “soluble on expression in E. coli” value is “soluble”.

Take “MVLRDKMILLDENTKAIVQGITGRQGSFHTKKMLECGTKIVGGVTPGKGGQNVHGVPVFDTVKEAVKETDANASVIFVPAPFAKDAVFEAIDAGIELIVVITEHIPVHDTMEFVNYAEDVGVKIIGPNTPGIASPKVGKLGIIPMEVLKEGSVGMVSRSGTLTYEIAHQIKKAGFGVSTCVGIGGDPIVGLRYKEVLDLFEKDDETEAIVMIGEIGGGAEEEAAKFIEKMKKPVIGYIAGQSAPEGKRMGHAGAIVEKGKGTAESKMKALEEAGAYVAKNISDIPKLLAGILGK”: the “soluble on expression in E. coli” value is reported as “soluble”.

“MKLESPLGSDLARLVRIWRALIDHRLKPLELTQTHWVTLHNIHQLPPDQSQIQLAKAIGIEQPSLVRTLDQLEEKGLISRQTCASDRRAKRIKLTEKAEPLISEMEAVINKTRAEILHGISAEELEQLITLIAKLEHNIIELQAKG”: the “soluble on expression in E. coli” value is reported as “not soluble”.

(Values after the DeepSol protein solubility set.)
